The target of the assay is T1, vacuolar Qa-SNARE Vam3 (yeast, UniProt Q12241 1-283).
T1 sequence: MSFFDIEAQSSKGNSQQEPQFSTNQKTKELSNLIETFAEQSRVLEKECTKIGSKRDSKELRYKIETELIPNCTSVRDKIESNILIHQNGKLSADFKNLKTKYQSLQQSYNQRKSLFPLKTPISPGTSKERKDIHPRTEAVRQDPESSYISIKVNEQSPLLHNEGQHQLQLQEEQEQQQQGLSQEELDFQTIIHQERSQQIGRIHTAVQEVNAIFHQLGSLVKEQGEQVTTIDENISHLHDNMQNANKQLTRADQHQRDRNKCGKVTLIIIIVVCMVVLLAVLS
Nature of the assay: co-IP.

B1: vacuolar Qb-SNARE Vti1 (natural protein)
chain: MSSLLISYESDFKTTLEQAKASLAEAPSQPLSQRNTTLKHVEQQQDELFDLLDQMDVEVNNSIGDASERATYKAKLREWKKTIQSDIKRPLQSLVDSGDRDRLFGDLNASNIDDDQRQQLLSNHAILQKSGDRLKDASRIANETEGIGSQIMMDLRSQRETLENARQTLFQADSYVDKSIKTLKTMTRRLVANKFISYAIIAVLILLILLVLFSKFK
As to B1, the binding result is recorded as “binds”.
